These results are taken from US20250361274A1, “PEPTIDE AND PEPTIDE-CONTAINING AGENT” (PEPTIDREAM INC., priority 2022, published 2025).

The target in one experiment is T1, BMP4 (Homo sapiens, UniProt P12644).
T1 sequence (P12644 293-408): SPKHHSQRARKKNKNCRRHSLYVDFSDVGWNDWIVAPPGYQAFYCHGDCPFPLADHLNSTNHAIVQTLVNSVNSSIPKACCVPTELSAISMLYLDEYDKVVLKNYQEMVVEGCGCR
In words: BMP4 signal transduction inhibitory activity: SMAD1 phosphorylation by BMP4 stimulus, AlphaLISA SureFire, A549 cells. The class given is cell-based. The note with it: for aLISA BMP4: inhibition of SMAD1 phosphorylation by BMP4 stimulus, A549 cells. A general note: In Alpha technology, singlet oxygen from a donor bead excites a nearby acceptor bead.

The target of the next experiment is T2, BMP7 (Homo sapiens, UniProt P18075).
T2 sequence (P18075 293-431): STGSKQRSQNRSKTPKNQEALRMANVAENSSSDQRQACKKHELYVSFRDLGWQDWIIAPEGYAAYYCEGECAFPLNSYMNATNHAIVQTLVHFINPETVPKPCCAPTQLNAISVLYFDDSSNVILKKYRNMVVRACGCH
In words: BMP7 signal transduction inhibitory activity: SMAD1 phosphorylation by BMP7 stimulus, A549 cells. The class given is cell-based. The note with it: for aLISA BMP7: inhibition of SMAD1 phosphorylation by BMP7 stimulus, A549 cells. Summed up: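 SMAD1 phosphorylation readout in A549 cells stimulated with BMP7 (10 nM). Peptides were tested at three levels (e.g. 1/10/100, 10/100/1,000, 100/300/1,000, 10/30/90 nM) or at eight points, 1/3 steps, from 100 or 1,000 nM. Recombinant Noggin served as positive control at matching concentrations.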

[1] abbreviates: AlphaLISA, class by peptide concentration zone.
Where [2] appears, read: SMAD1 phosphorylation, BMP4 0.2 nM, peptide conc. in assay 0.2, 2, 20 nM.
The mark [3] stands for this setting: SMAD1 phosphorylation, BMP7 10 nM, peptide conc. in assay 1, 10, 100 nM.

Bridge positions count the residues as written; N and C are the ends. Square brackets hold non-standard residues; d marks the D form. Ends that are not written are not given here. Ala(2-NH2-4-pyridyl) = Nc1cc(C[C@H](N)C(=O)O)ccn1; 3Pal(6-Ph) = N[C@@H](Cc1ccc(-c2ccccc2)nc1)C(=O)O; Phe(4-COOH) = N[C@@H](Cc1ccc(C(=O)O)cc1)C(=O)O; Bip = N[C@@H](Cc1ccc(-c2ccccc2)cc1)C(=O)O; Abu(4,4,4-F3) = N[C@@H](CC(F)(F)F)C(=O)O; Phe(4-Me) = Cc1ccc(C[C@H](N)C(=O)O)cc1; NMeF = CN[C@@H](Cc1ccccc1)C(=O)O; 4Pal = N[C@@H](Cc1ccncc1)C(=O)O; Aad = N[C@@H](CCCC(=O)O)C(=O)O; Cha = N[C@@H](CC1CCCCC1)C(=O)O; Abu = CC[C@H](N)C(=O)O; βAla = NCCC(=O)O

Consider “49 (Ac-ARVYVDR[Bip]PYP[Bip]Y[Phe(4-COOH)][Phe(4-COOH)]SC[βAla]-PEG12Me; thioether (positions not given here); not fully specified (bridges)) [compound 49]”, for which the “aLISA BMP4” value in the experiment with BMP4 (setting [1]) was “C (showed an inhibitory activity of less than 50% in 0.2 nM-addition zone and showed an inhibitory activity of 50% or more in 2 nM-addition zone were defined as B or C)”. The “aLISA BMP7” value with BMP7 (setting [1]) was “ND (the inhibitory activity was less than 30% at the maximum concentration evaluated)”.
For “360 (FG[NMeF]G[Bip]GDE[Cha]A[NMeF]L[Ala(2-NH2-4-pyridyl)]CG-NH2; not fully specified (N-terminus, bridges)) [compound 360]”, in the experiment with BMP4 (setting [2]), the “aLISA BMP4 (0.2 nM) % inh” value is reported as “ND (the inhibitory activity was less than 30% at the maximum concentration evaluated)”. Besides, the “aLISA BMP7 (10 nM) % inh” value with BMP7 (setting [3]) was “D (showed less than 30% of inhibitory activity in 10 nM-addition zone and showed 30% or more of inhibitory activity in 100 nM-addition zone)”.
“339 (FG[NMeF]G[Bip]GDD[Cha][Abu][NMeF]LHCG-NH2; not fully specified (N-terminus, bridges)) [compound 339]”: the “aLISA BMP4 (0.2 nM) % inh” value in the experiment with BMP4 (setting [2]) was “ND (the inhibitory activity was less than 30% at the maximum concentration evaluated)”. Further, the “aLISA BMP7 (10 nM) % inh” value with BMP7 (setting [3]) is “D (showed less than 30% of inhibitory activity in 10 nM-addition zone and showed 30% or more of inhibitory activity in 100 nM-addition zone)”.
In the case of “95 ({CH2CO}-ERVYVDR[Bip]SYP[Bip]Y[Phe(4-COOH)][Phe(4-COOH)]SC[βAla][dE]-OH; thioether N-17; not fully specified) [compound 95]”, the “aLISA BMP4” value with BMP4 (peptides of Synthesis 2, classes A-C, ND) is on record as “A (showed an inhibitory activity of 50% or more in a zone to which the peptide was added to in an amount of 0.2 nM)”. For the same substance, in the experiment with BMP7 (peptides of Synthesis 2, classes A-D, ND), the “aLISA BMP7” value was “C (showed less than 50% of inhibitory activity in 10 nM-addition zone and showed 50% or more of inhibitory activity in 100 nM-addition zone)”.
“382 (FG[NMeF]G[Phe(4-Me)]GDD[Cha]A[NMeF]LHCG-NH2; not fully specified) [compound 382]”: the “aLISA BMP4 (0.2 nM) % inh” value in the experiment with BMP4 (BMP4 0.2 nM stimulus, peptide conc. in assay 2, 20, 200 nM) is “ND (the inhibitory activity was less than 30% at the maximum concentration evaluated)”. The “aLISA BMP7 (10 nM) % inh” value with BMP7 (BMP7 10 nM stimulus, peptide conc. in assay 10, 30, 90 nM) is “G (showed less than 30% of inhibitory activity in 30 nM-addition zone and showed 30% or more of inhibitory activity in 90 nM-addition zone)”.
For the substance “271 (ERV[Phe(4-COOH)][Abu(4,4,4-F3)]DR[3Pal(6-Ph)]SYV[Bip][4Pal][Phe(4-COOH)][Phe(4-COOH)]SCG-NH2) [compound 271]”, the “aLIZA BMP4 (0.2 nM) % inh” value with BMP4 (BMP4 0.2 nM stimulus, peptide conc. in assay 0.02, 0.2, 2 nM, class symbols) was “C (showed less than 30% of inhibitory activity in 0.2 nM-addition zone and showed 30% or more of inhibitory activity in 2 nM-addition zone)”. Besides, the “aLIZA BMP7 (10 nM) % inh” value with BMP7 (BMP7 10 nM stimulus, peptide conc. in assay 10, 100, 1000 nM, class symbols) was “ND (the inhibitory activity was less than 30% at the maximum concentration evaluated)”.
In the case of “367 (FG[NMeF]GFGDE[Cha]Q[NMeF]LHCG-NH2; not fully specified (N-terminus, bridges)) [compound 367]”, the “aLISA BMP4 (0.2 nM) % inh” value with BMP4 (setting [2]) is reported as “ND (the inhibitory activity was less than 30% at the maximum concentration evaluated)”. Further, the “aLISA BMP7 (10 nM) % inh” value with BMP7 (setting [3]) was “D (showed less than 30% of inhibitory activity in 10 nM-addition zone and showed 30% or more of inhibitory activity in 100 nM-addition zone)”.
In the case of “402 (FG[NMeF]G[Bip]GDE[Cha][Aad][NMeF]L[Abu]CG-NH2; not fully specified) [compound 402]”, the “aLISA BMP4 (0.2 nM) % inh” value in the experiment with BMP4 (BMP4 0.2 nM stimulus, peptide conc. in assay 0.2, 2, 20 nM) is reported as “ND (the inhibitory activity was less than 30% at the maximum concentration evaluated)”. Moreover, the “aLISA BMP7 (10 nM) % inh” value with BMP7 (BMP7 10 nM stimulus, peptide conc. in assay 1, 10, 100 nM) was “C (showed less than 30% of inhibitory activity in a zone to which the peptide was added in an amount of 1 nM and showed 30% or more of inhibitory activity in 10 nM-addition zone)”.
“361 (FG[NMeF]G[Bip]GDE[Cha]A[NMeF]L[Phe(4-COOH)]CG-NH2; not fully specified (N-terminus, bridges)) [compound 361]”: in the experiment with BMP4 (setting [2]), the “aLISA BMP4 (0.2 nM) % inh” value is “ND (the inhibitory activity was less than 30% at the maximum concentration evaluated)”. Moreover, the “aLISA BMP7 (10 nM) % inh” value with BMP7 (setting [3]) is “D (showed less than 30% of inhibitory activity in 10 nM-addition zone and showed 30% or more of inhibitory activity in 100 nM-addition zone)”.
